Assay results reported in patent US10787640B2, “Producing mesodermal cell types and methods of using the same” (The Board of Trustees of the Leland Stanford Junior …, priority 2015, dated 2020).

Tests used:
[1] = test system: hESC-derived cardiac mesoderm; assay: Cardiac mesoderm differentiation into cardiovascular fates, qPCR; type: cell-based, human
Experimental: Day 2 lateral mesoderm was differentiated into day 4 cardiac mesoderm by treating them with 1 μM A8301+30 ng/mL BMP4+1 μM C59+20 ng/mL FGF2 for 48 hrs, or alternatively, with 1 μM A8301+30 ng/mL BMP4+20 ng/mL FGF2 for 24 hrs followed by 25 ng/mL Activin+30 ng/mL BMP4+1 μM C59 for the next 24 hrs (schema in FIG. 5E; positive effect of mid-stage Activin shown in FIG. 12K). Subsequently, day 4 cardiac mesoderm was briefly washed (DMEM/F12) and treated with 30 ng/mL BMP4+1 μM XAV939+200 μg/mL 2-phospho-ascorbic acid (Sigma) for 48-96 hrs to yield day 6-8 cardiomyocyte-containing populations. Spontaneously contracting cardiomyocyte foci were evident from day 8 onwards.
C) To reveal the possible identity of non-cardiac mesoderm lineages that were contaminating cardiac mesoderm-containing cultures, NKX2.5-GFP hESCs were differentiated towards mid primitive streak (day 1) and were differentiated towards a heterogeneous population containing cardiac mesoderm (day 3) by treatment with SB-505124+BMP4+C59 (without FGF2) on days 2-3 of differentiation. FACS was performed on day 3 to purify either NKX2.5-GFP^+ or NKX2.5-GFP^− cells (top subpanels) which were sorted for qPCR (bottom subpanels). Gene expression was normalized to expression of a gene in the NKX2.5-GFP^+ fraction (dotted line). D) Timecourse of gene expression in hESCs differentiating towards mid primitive streak and lateral mesoderm, with treatment by SB-505124+BMP4+C59 on days 2-3 of differentiation. […] G) To assess whether a stabilized vitamin C analog (ascorbic acid-2-phosphate) (AA2P) enhanced cardiac mesoderm differentiation into cardiomyocytes, day 4 hESC-derived cardiac mesoderm was exposed to BMP4 (30 ng/mL)+XAV939 (1 μM) for 48 hours in the presence or absence of 200 μg/mL AA2P and qPCR was conducted of day 6 populations; qPCR data were normalized such that expression values in the highest-expressing sample was normalized=1.0. […] J) In the mouse embryo, endocardium (progenitors to heart-affiliated endothelium) are marked by transient coexpression of pan-heart marker Nkx2.5 together with endothelial markers (Ferdous et al., 2009; Stanley et al., 2002).

hESCs = assay: Primitive streak (PS) induction from hESCs, qPCR; type: cell-based, human
Experimental: As aforementioned, after overnight plating, hPSCs were briefly washed (with DMEM/F12) and then differentiated into either anterior primitive streak (30 ng/mL Activin A+4 μM CHIR99021+20 ng/mL FGF2+100 nM PIK90; for subsequent paraxial mesoderm induction) or mid primitive streak ([…] Activin A+40 ng/mL BMP4+6 μM CHIR99021+20 ng/mL FGF2+100 nM PIK90; for subsequent cardiac mesoderm induction) for 24 hrs.
Total cDNA was diluted 1:10-1:30 in H2O and qPCR was performed with the SensiFAST SYBR Lo-ROX Kit (Bioline) with 10 μL qPCR reactions per well in a 384-well plate: 5.0 μL 2× qPCR Master Mix+4.6 μL cDNA (totaling ˜120 ng of cDNA)+0.4 μL of 10 μM primer stock (5 μM forward+5 μM reverse primers). In general, gene-specific primer pairs were tested for (1) specificity of amplicon amplification (only one peak on a dissociation curve) and (2) linearity of amplicon amplification (linear detection of gene expression in cDNA samples serially diluted seven times over two orders of magnitude, with 90-110% efficiency of amplification deemed acceptably linear). After qPCR plates were prepared by arraying sample-specific cDNAs and gene-specific primers, they were sealed and briefly centrifuged (5 mins). 384-well qPCR plates and their adhesive sealing sheets were obtained from Thermo (AB1384 and AB0558, respectively). qPCR plates were run on a 7900HT Fast Real-Time PCR System (Applied Biosystems) with the following cycling parameters: initial dissociation (95° C., 2 mins) followed by 40 cycles of amplification and SYBR signal detection (95° C. dissociation, 5 seconds; 60° C. annealing, 10 seconds; followed by 72° C. extension, 30 seconds), with a final series of steps to generate a dissociation curve at the end of each qPCR run. During qPCR data analysis, the fluorescence threshold to determine Ct values was set at the linear phase of amplification; other qPCR data analysis methods including qPCR heatmap generation using the GenePattern platform (Broad Institute) were described previously by Loh et al., 2014, the disclosure of which is incorporated herein by reference in its entirety.
E) To assess whether inducing PS in the presence of TGFβ signaling altered its downstream potential to form different kinds of mesoderm, (i) H7 hESCs were differentiated into PS with CHIR99021+FGF2+PIK90 (CFK) for 24 hours in the presence or absence of increasing amounts of Activin (10-100 ng/mL), and then were transferred into paraxial mesoderm induction conditions (A-83-01+CHIR99021+DM3189+FGF2) for 24 hrs, and qPCR was conducted or (ii) H7 hESCs were differentiated into PS with BMP4 (10 ng/mL)+CHIR99021+FGF2+PIK90 (B10CFK) for 24 hours in the presence or absence of increasing amounts of Activin (10-100 ng/mL), and then were transferred into lateral/cardiac mesoderm inductions (A-83-01+BMP4+C59) for 24 hours and qPCR was conducted. […] F) To assess whether inducing PS in the presence of BMP signaling altered its downstream potential to form different kinds of mesoderm, H7 hESCs were differentiated into PS with Activin (10 ng/mL)+CHIR99021+FGF2+PIK90 (A10CFK) for 24 hours in the presence of absence of increasing amounts of BMP4 (1-40 ng/mL), and then were (i) transferred into paraxial mesoderm induction conditions (A-83-01+CHIR99021+DM3189+FGF2) for 24 hrs, and qPCR was conducted or were (ii) transferred into lateral/cardiac mesoderm inductions (A-83-01+BMP4+C59) for 24 hours and qPCR was conducted. […] G) H7 hESCs were differentiated into anterior primitive streak (30 ng/mL Activin+4 μM CHIR99021+20 ng/mL FGF2+100 nM PIK90) in the presence or absence of BMP4 (10 ng/mL) for 24 hours, and then transferred into paraxial mesoderm induction conditions for 24 hours before TBX6 immunostaining was conducted. […]

## Cc1cnc(-c2cnc(NCCNc3ccc(C#N)cn3)nc2-c2ccc(Cl)cc2Cl)[nH]1 [CHIR99021, 6-[[2-[[4-(2,4-Dichlorophenyl)-5-(5-methyl-1H-imidazol-2-yl)-2-pyrimidinyl]amino]ethyl]amino]-3-pyridinecarbonitrile]
[1]; BMP4 30 ng/mL with CHIR99021 3 μM, 48 hours
  differentiation into cardiomyocytes (qPCR day 6): fully blocked cardiac mesoderm differentiation into cardiomyocytes
hESCs; 24 hours in A3B3F20, 300 ng/mL WNT3A or 0.5-8 μM CHIR99021
  PS marker expression (qPCR): broadly induces both anterior (TBX6) and mid/posterior (FOXF1, MESP1) PS markers

## Cc1cccc(-c2[nH]c(C(C)(C)C)nc2-c2ccc3c(c2)OCO3)n1 [SB-505124, 2-[4-(1,3-Benzodioxol-5-yl)-2-(1,1-dimethylethyl)-1H-imidazol-5-yl]-6-methyl-pyridine]
hESCs; CHIR99021+20 ng/mL FGF2+100 nM PIK90 with 2 μM SB-505124 or 1 μM A-83-01
  PS differentiation: strongly impairs PS differentiation

B1: BMP4: BMP family ligand, BMP agonist (protein, UniProt P12644 293-408, looked up)
Bone morphogenetic protein 4: SPKHHSQRARKKNKNCRRHSLYVDFSDVGWNDWIVAPPGYQAFYCHGDCPFPLADHLNSTNHAIVQTLVNSVNSSIPKACCVPTELSAISMLYLDEYDKVVLKNYQEMVVEGCGCR
[1]; XAV939 1 μM with BMP4 5-30 ng/mL, 48 hours
  cardiovascular fate commitment (TNNT2, MYH6, MYH7): preferentially promotes commitment to cardiomyocyte fate
[1]; day 4 cardiac mesoderm, BMP4 30 ng/mL, 48 hours
  cardiomyocyte and endothelial gene expression: upregulation of both cardiomyocyte (myocardium) and endothelial (presumptive endocardium) genes
hESCs; ACFK with LDN193189 250 nM or BMP4 3-100 ng/mL
  PS formation and anterior-posterior patterning: induced posterior PS

B2: Activin: TGFβ agonist (protein, UniProt P08476 311-426, looked up)
Inhibin beta A chain: GLECDGKVNICCKKQFFVSFKDIGWNDWIIAPSGYHANYCEGECPSHIAGTSGSSLSFHSTVINHYRMRGHSPFANLKSCCVPTKLRPMSMLYYDDGQNIIKKDIQNMIVEECGCS
modifications: Inhibin beta A chain
notes: TGFβ agonist
[1]; day 3 cardiac mesoderm, BMP4+C59+FGF2 with Activin 25 ng/mL, 24 hours
  subsequent cardiomyocyte differentiation: enhanced subsequent cardiomyocyte differentiation
